From the supplement of paper PMC9112550, “Optimization of the antimicrobial peptide Bac7 by deep mutational scanning” (BMC Biology, 2022)

tested on: Escherichia coli TOP10; experiment: shrunken log2 fold change of peptide-encoding DNA abundance (4.5 h post-induction vs induction); higher = less antimicrobial activity (less host growth inhibition); conditions: time post-induction: 4.5 h; library: site-saturation at positions 5, 18, 19, 20
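Further: peptides expressed intracellularly from a pBAD plasmid library in pooled LB shake-flask culture, induced with 0.3% L-arabinose, DNA abundance read by NGS, three biological replicates, DESeq2 with apeglm shrinkage.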

Sequence | shrunken log2 fold change
RRIRCRPPRLPRPRPRPWTLPRP | -0.282
RRIRERPPRLPRPRPRPAETPRP | 0.0123
RRIRFRPPRLPRPRPRPKIYPRP | -0.328
RRIRHRPPRLPRPRPRPSMKPRP | -0.436
RRIRMRPPRLPRPRPRPISMPRP | 0.0246
RRIRGRPPRLPRPRPRPMGYPRP | 0.111
RRIRHRPPRLPRPRPRPFMGPRP | -0.103
RRIRNRPPRLPRPRPRPNEFPRP | -0.692
RRIRDRPPRLPRPRPRPKTDPRP | -0.314
RRIRIRPPRLPRPRPRPRRPPRP | 0.233
RRIRQRPPRLPRPRPRPYAKPRP | -0.122
RRIRKRPPRLPRPRPRPKDKPRP | 0.388
RRIRGRPPRLPRPRPRPRRSPRP | 0.767
RRIRKRPPRLPRPRPRPCATPRP | 0.242
RRIRIRPPRLPRPRPRPKETPRP | -0.0675
RRIRERPPRLPRPRPRPYATPRP | -0.359
RRIRRRPPRLPRPRPRPSFQPRP | 0.0356
RRIRHRPPRLPRPRPRPEWKPRP | -0.00613
RRIRIRPPRLPRPRPRPDGLPRP | 0.0731
RRIRLRPPRLPRPRPRPNKIPRP | -0.243
RRIRRRPPRLPRPRPRPMENPRP | 0.113
RRIRQRPPRLPRPRPRPMTEPRP | -0.0192

Sequence | shrunken log2 fold change
RRIRFRPPRLPRPRPRPMMYPRP | -0.104
RRIRQRPPRLPRPRPRPCCWPRP | 0.0955
RRIRLRPPRLPRPRPRPCGYPRP | -0.111
RRIRNRPPRLPRPRPRPRYKPRP | -0.566
RRIRYRPPRLPRPRPRPLTQPRP | -0.416
RRIRHRPPRLPRPRPRPQQSPRP | -0.0132
RRIRKRPPRLPRPRPRPKWDPRP | 0.361
RRIRWRPPRLPRPRPRPQTNPRP | 0.14
RRIRLRPPRLPRPRPRPNFNPRP | 0.597
RRIRTRPPRLPRPRPRPCFTPRP | -0.358
RRIRIRPPRLPRPRPRPDKNPRP | -0.673
RRIRTRPPRLPRPRPRPKPFPRP | 0.122
RRIRARPPRLPRPRPRPEQAPRP | 0.759
RRIRERPPRLPRPRPRPGHFPRP | 0.0631
RRIRGRPPRLPRPRPRPVLTPRP | 0.834
RRIRMRPPRLPRPRPRPTSYPRP | -0.0286
RRIRERPPRLPRPRPRPTSYPRP | -0.288
RRIRMRPPRLPRPRPRPVCEPRP | 0.353
RRIRVRPPRLPRPRPRPPCQPRP | 0.0844
RRIRERPPRLPRPRPRPWSVPRP | -0.113
RRIRKRPPRLPRPRPRPMIPPRP | 0.0969
RRIRIRPPRLPRPRPRPHERPRP | -0.169

Sequence | shrunken log2 fold change
RRIRKRPPRLPRPRPRPAEMPRP | -0.00753
RRIRFRPPRLPRPRPRPKGQPRP | 0.105
RRIRCRPPRLPRPRPRPHRAPRP | -0.096
RRIRGRPPRLPRPRPRPLSTPRP | 1.13
RRIRQRPPRLPRPRPRPPSEPRP | -0.0213
RRIRKRPPRLPRPRPRPGRDPRP | 0.688
RRIRCRPPRLPRPRPRPNRAPRP | 0.00805
RRIRPRPPRLPRPRPRPCWNPRP | -0.0418
RRIRYRPPRLPRPRPRPFMEPRP | -0.0943
RRIRYRPPRLPRPRPRPSRNPRP | -0.12
RRIRCRPPRLPRPRPRPGDMPRP | -0.115
RRIRARPPRLPRPRPRPFACPRP | 0.829
RRIRPRPPRLPRPRPRPQTQPRP | 0.115
RRIRQRPPRLPRPRPRPNSRPRP | -0.0312
RRIRTRPPRLPRPRPRPCPLPRP | -0.325
RRIRNRPPRLPRPRPRPIESPRP | -0.00107
RRIRPRPPRLPRPRPRPWGWPRP | 0.149
RRIRGRPPRLPRPRPRPVCEPRP | 1.06
RRIRARPPRLPRPRPRPEDWPRP | 1.63
RRIRLRPPRLPRPRPRPHPYPRP | -0.379
RRIRTRPPRLPRPRPRPGHPPRP | 0.09
RRIRNRPPRLPRPRPRPMTMPRP | 0.0125

Sequence | shrunken log2 fold change
RRIRLRPPRLPRPRPRPWWTPRP | -0.312
RRIRPRPPRLPRPRPRPWRHPRP | -0.0659
RRIRKRPPRLPRPRPRPHTCPRP | 0.00412
RRIRMRPPRLPRPRPRPRADPRP | 1.73
RRIRCRPPRLPRPRPRPCHTPRP | 0.00624
RRIRQRPPRLPRPRPRPFISPRP | -0.0195
RRIRIRPPRLPRPRPRPGDQPRP | -0.0693
RRIRCRPPRLPRPRPRPKEIPRP | 0.0368
RRIRMRPPRLPRPRPRPETSPRP | 0.163
RRIRTRPPRLPRPRPRPLRSPRP | 0.387
RRIRERPPRLPRPRPRPHWRPRP | 0.198
RRIRWRPPRLPRPRPRPAINPRP | 0.185
RRIRQRPPRLPRPRPRPLWTPRP | -0.042
RRIRFRPPRLPRPRPRPCCKPRP | -0.00992
RRIRRRPPRLPRPRPRPQDQPRP | 0.168
RRIRWRPPRLPRPRPRPDTDPRP | 0.225
RRIRYRPPRLPRPRPRPCYEPRP | -0.246
RRIRWRPPRLPRPRPRPHHYPRP | -0.952
RRIRGRPPRLPRPRPRPYAYPRP | -0.0803
RRIRLRPPRLPRPRPRPALHPRP | 0.135
RRIRNRPPRLPRPRPRPPREPRP | 0.534
RRIRPRPPRLPRPRPRPFQIPRP | -0.169

Sequence | shrunken log2 fold change
RRIRERPPRLPRPRPRPPMPPRP | 0.0249
RRIRSRPPRLPRPRPRPERRPRP | 0.23
RRIRCRPPRLPRPRPRPHRHPRP | -0.275
RRIRDRPPRLPRPRPRPRNKPRP | -0.014
RRIRRRPPRLPRPRPRPNLRPRP | 0.00766
RRIRGRPPRLPRPRPRPHCEPRP | 0.22
RRIRPRPPRLPRPRPRPFCSPRP | -0.186
RRIRRRPPRLPRPRPRPRCWPRP | 0.486
RRIRVRPPRLPRPRPRPQHYPRP | -0.718
RRIRSRPPRLPRPRPRPRYCPRP | -0.483
RRIRIRPPRLPRPRPRPSLLPRP | -0.374
RRIRKRPPRLPRPRPRPYMRPRP | -0.0194
RRIRTRPPRLPRPRPRPDHPPRP | -0.224
RRIRCRPPRLPRPRPRPWIIPRP | -0.577
RRIRHRPPRLPRPRPRPLAPPRP | 0.196
RRIRQRPPRLPRPRPRPLLEPRP | 0.105
RRIRMRPPRLPRPRPRPSWFPRP | 0.0112
RRIRKRPPRLPRPRPRPHKKPRP | -0.127
RRIRERPPRLPRPRPRPDITPRP | 3.39
RRIRERPPRLPRPRPRPRCVPRP | 0.0448
RRIRQRPPRLPRPRPRPRMRPRP | 0.583
